Assays:
[1] = molecular target: human α-synuclein, full length, wild type (human) (UniProt P37840); test: direct ELISA, 100 ng/ml coating of full length α-synuclein
[2] = molecular target: human α-synuclein, full length, wild type (human) (UniProt P37840); test: direct ELISA, 20 µg/ml coating of full length α-synuclein

antibody Syn211 (Sigma) was tested, and the EC50 [1] was 0.099 nM and the EC50 [2] was 0.335 nM.
